Data: the supplement of paper PMC7125110
± gives the standard error. For part of these data: This sample holds only a part of the variants without activity.

B1: glmS ribozyme (parent)
chain: AUAAAAGCGCCAGAACUACAGAAAUGUAGUUGACGAGGAGGAGGUUUAUCGAAUUUUCGGCGGAUGCCUCCAAA

Key:
Conditions in all cases: with glucosamine-6-phosphate
glucosamine-6-phosphate [1] = variants of: B1; experiment: kcat; higher = faster cleavage; RNA array
Method in brief: (§1)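 Glucosamine-6-phosphate (40 μM to 10 mM) in HEPES/KCl/Mg(OAc)2 buffer was flowed over sequenced MiSeq chips, and tiles were imaged over ~14 h. Barcoded ribozyme variants there had been transcribed in situ by E. coli RNA polymerase and were tracked through a hybridised Cy3 probe at 37 °C. One- or two-exponential decay fits to per-tile medians, normalised to baseline and to non-cleaving reference variants, gave kobs. kcat and KM came from weighted Michaelis–Menten fits across concentrations.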

glucosamine-6-phosphate [2] = variants of: B1; experiment: KM; higher = weaker cofactor use; RNA array
Method in brief: as §1

glucosamine-6-phosphate [3] = variants of: B1; experiment: self-cleavage kobs at 40 uM GlcN6P; higher = faster cleavage; RNA array
Method in brief: as §1

glucosamine-6-phosphate [4] = variants of: B1; experiment: self-cleavage kobs at 160 uM GlcN6P; higher = faster cleavage; RNA array
Method in brief: as §1

glucosamine-6-phosphate [5] = variants of: B1; experiment: self-cleavage kobs at 640 uM GlcN6P; higher = faster cleavage; RNA array
Method in brief: as §1

glucosamine-6-phosphate [6] = variants of: B1; experiment: self-cleavage kobs at 2500 uM GlcN6P; higher = faster cleavage; RNA array
Method in brief: as §1

glucosamine-6-phosphate [7] = variants of: B1; experiment: self-cleavage kobs at 10000 uM GlcN6P; higher = faster cleavage; RNA array
Method in brief: as §1

Variant	kcat (glucosamine-6-phosphate [1]) [s⁻¹]	KM (glucosamine-6-phosphate [2]) [µM]	self-cleavage kobs at 40 uM GlcN6P (glucosamine-6-phosphate [3]) [s⁻¹]	self-cleavage kobs at 160 uM GlcN6P (glucosamine-6-phosphate [4]) [s⁻¹]	self-cleavage kobs at 640 uM GlcN6P (glucosamine-6-phosphate [5]) [s⁻¹]	self-cleavage kobs at 2500 uM GlcN6P (glucosamine-6-phosphate [6]) [s⁻¹]	self-cleavage kobs at 10000 uM GlcN6P (glucosamine-6-phosphate [7]) [s⁻¹]
U45A A53C	0.0341 ± 0.0078	3160 ± 860	0.000466 ± 8.3e-05	0.00139 ± 0.00027	0.00608 ± 0.00081	0.017 ± 0.0047	0.0239 ± 0.0068
A14G A48C	0.00102 ± 4.5e-05	2630 ± 260		5.84e-05 ± 1.5e-05	0.000205 ± 8.1e-05	0.000509 ± 6.7e-05	0.000803 ± 7.7e-05
A33U C67G C68G	9.15e-05 ± 1.3e-05		6.63e-05 ± 2e-05	4.67e-05 ± 1.9e-05	0.000106 ± 1.7e-05	9.54e-05 ± 1.6e-05	7.94e-05 ± 2e-05
U45A A48G	0.000299 ± 7.2e-05				8.14e-05 ± 1.3e-05	0.00033 ± 4.4e-05	0.00024 ± 2.6e-05
U65A C68U	0.000403 ± 0.00012		3.81e-05 ± 8.7e-06	0.000111 ± 1.8e-05	0.000186 ± 2.8e-05	0.000287 ± 4.2e-05	0.000655 ± 8.7e-05
G63C C70A	1.89e-05 ± 5.1e-06						
U30G C68A	2.01e-05 ± 5.2e-06						
G35A G38A	< 1e-05						
G41C U65A	7.02e-05 ± 4.5e-06	1620 ± 350	< 1e-05			4.49e-05 ± 1e-05	5.94e-05 ± 1.1e-05
A42C	1.83e-05 ± 2.5e-07	5140 ± 190					1.21e-05 ± 1.4e-06
U56G C68U	0.00243 ± 0.00033	1660 ± 380	6.61e-05 ± 1.1e-05	0.000217 ± 4.7e-05	0.000551 ± 9.7e-05	0.00206 ± 0.00046	0.00208 ± 0.00021
A64C U69G	1.56e-05 ± 5e-06		< 1e-05				
C16G C61U C67U	< 1e-05		< 1e-05	< 1e-05			< 1e-05
U57A C71G	5.3e-05 ± 1.6e-05						
C10U A12U	0.000153 ± 2.3e-05	3200 ± 1200			1.92e-05 ± 6e-06	8.4e-05 ± 1.2e-05	0.000113 ± 9e-06
A53U A64U	6.7e-05 ± 2e-06	1330 ± 190	< 1e-05			4.18e-05 ± 1.2e-05	5.95e-05 ± 7.3e-06
G41C C70A	0.000866 ± 0.00015	762 ± 230	5.77e-05 ± 8.1e-06	0.000116 ± 2.1e-05	0.000392 ± 6.6e-05	0.00078 ± 0.00012	0.000775 ± 9.6e-05
G37C U49G	< 1e-05						
